How the values were obtained:
[1] = biological target: Factor X, P00742
[2] = biological target: Factor X (FX), P00742
[3] = biological target: plasma purified human AT-III (antithrombin III); experiment: AT-III/UFH inhibition K0.5, ratio to Catalyst Biosciences WT FIXa
[4] = biological target: plasma purified human antithrombin III (AT-III), as complex with unfractionated heparin; experiment: ratio of K0.5 (lower limit) to Catalyst Biosciences WT FIXa, AT-III/UFH inhibition

Factor X (FX), P00742, sequence (P00742 whole entry, looked up): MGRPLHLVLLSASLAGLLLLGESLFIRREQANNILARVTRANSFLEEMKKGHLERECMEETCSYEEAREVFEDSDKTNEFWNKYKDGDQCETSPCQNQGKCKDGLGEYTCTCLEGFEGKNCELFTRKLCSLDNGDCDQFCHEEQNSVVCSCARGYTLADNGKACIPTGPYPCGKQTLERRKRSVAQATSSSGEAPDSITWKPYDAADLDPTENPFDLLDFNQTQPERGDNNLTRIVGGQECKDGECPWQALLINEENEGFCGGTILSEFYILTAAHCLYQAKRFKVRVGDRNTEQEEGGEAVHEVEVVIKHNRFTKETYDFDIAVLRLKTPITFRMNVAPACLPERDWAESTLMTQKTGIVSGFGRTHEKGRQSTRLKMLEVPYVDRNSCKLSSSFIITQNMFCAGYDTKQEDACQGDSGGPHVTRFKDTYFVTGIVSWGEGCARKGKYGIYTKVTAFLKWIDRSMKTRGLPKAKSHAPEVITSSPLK
Factor X, P00742, sequence (P00742 whole entry, looked up): as above

B1: FIXa-R318Y/R338E/R403E/E410S (protein)
chain 1: YNSGKLEEFVQGNLERECMEEKCSFEEAREVFENTERTTEFWKQYVDGDQCESNPCLNGGSCKDDINSYECWCPFGFEGKNCELDVTCNIKNGRCEQFCKNSADNKVVCSCTEGYRLAENQKSCEPAVPFPCGRVSVSQTSKLTR
chain 2: VVGGEDAKPGQFPWQVVLNGKVDAFCGGSIVNEKWIVTAAHCVETGVKITVVAGEHNIEETEHTEQKRNVIRIIPHHNYNAAINKYNHDIALLELDEPLVLNSYVTPICIADKEYTNIFLKFGSGYVSGWGRVFHKGYSALVLQYLRVPLVDRATCLESTKFTIYNNMFCAGFHEGGRDSCQGDSGGPHVTEVEGTSFLTGIISWGEECAMKGKYGIYTKVSEYVNWIKSKTKLT
In the case of B1, the “% of WT kcat/KM” value [1] is reported as 401%, the KM [1] is reported as 0.0351 µM and the kcat/KM [1] is reported as 1.8e+08 M⁻¹ s⁻¹. For the same protein, the “% of WT kcat/KM” value [2] was 458%, the kcat [2] was 5.8 s⁻¹ and the kcat of FX activation by FIXa (Xase complex with FVIIIa, PC/PS vesicles, Ca2+) [2] was 7.4 s⁻¹. For the same protein, the kcat/KM [2] was 2.1e+08 M⁻¹ s⁻¹, the K0.5-mut/K0.5-wt [3] was > 517 and the K0.5-mut/K0.5-wt [4] was 517.

B2: FIXa-R318Y/R338E/R403E/E410N/T412V (protein)
chain 1: YNSGKLEEFVQGNLERECMEEKCSFEEAREVFENTERTTEFWKQYVDGDQCESNPCLNGGSCKDDINSYECWCPFGFEGKNCELDVTCNIKNGRCEQFCKNSADNKVVCSCTEGYRLAENQKSCEPAVPFPCGRVSVSQTSKLTR
chain 2: VVGGEDAKPGQFPWQVVLNGKVDAFCGGSIVNEKWIVTAAHCVETGVKITVVAGEHNIEETEHTEQKRNVIRIIPHHNYNAAINKYNHDIALLELDEPLVLNSYVTPICIADKEYTNIFLKFGSGYVSGWGRVFHKGYSALVLQYLRVPLVDRATCLESTKFTIYNNMFCAGFHEGGRDSCQGDSGGPHVTEVEGTSFLTGIISWGEECAMKGKYGIYTKVSEYVNWIKNKVKLT
In the case of B2, the “% of WT kcat/KM” value [1] is reported as 424%, the kcat [1] is reported as 7.9 s⁻¹ and the kcat/KM [1] is reported as 1.9e+08 M⁻¹ s⁻¹. The KM [2] was 0.0443 µM, the kcat of FX activation by FIXa (Xase complex with FVIIIa, PC/PS vesicles, Ca2+) [2] was 7 s⁻¹ and the K0.5-mut/K0.5-wt [3] was > 517. The K0.5-mut/K0.5-wt [4] was 517.

B3: FIXa-K228N/K247N/N249S/R318Y/R338E/R403E/E410N (protein)
chain 1: YNSGKLEEFVQGNLERECMEEKCSFEEAREVFENTERTTEFWKQYVDGDQCESNPCLNGGSCKDDINSYECWCPFGFEGKNCELDVTCNIKNGRCEQFCKNSADNKVVCSCTEGYRLAENQKSCEPAVPFPCGRVSVSQTSKLTR
chain 2: VVGGEDAKPGQFPWQVVLNGKVDAFCGGSIVNEKWIVTAAHCVETGVNITVVAGEHNIEETEHTEQNRSVIRIIPHHNYNAAINKYNHDIALLELDEPLVLNSYVTPICIADKEYTNIFLKFGSGYVSGWGRVFHKGYSALVLQYLRVPLVDRATCLESTKFTIYNNMFCAGFHEGGRDSCQGDSGGPHVTEVEGTSFLTGIISWGEECAMKGKYGIYTKVSEYVNWIKNKTKLT
For B3, the “% of WT kcat/KM” value [1] was 258%, the kcat [1] was 6.1 s⁻¹ and the kcat/KM [1] was 1.2e+08 M⁻¹ s⁻¹. The KM [2] was 0.0558 µM, the kcat of FX activation by FIXa (Xase complex with FVIIIa, PC/PS vesicles, Ca2+) [2] was 7.1 s⁻¹ and the K0.5-mut/K0.5-wt [3] was > 517. It also gave a K0.5-mut/K0.5-wt [4] of 517.

B4: FIXa-R318Y/R338E/R403E/E410N/T412A (protein)
chain 1: YNSGKLEEFVQGNLERECMEEKCSFEEAREVFENTERTTEFWKQYVDGDQCESNPCLNGGSCKDDINSYECWCPFGFEGKNCELDVTCNIKNGRCEQFCKNSADNKVVCSCTEGYRLAENQKSCEPAVPFPCGRVSVSQTSKLTR
chain 2: VVGGEDAKPGQFPWQVVLNGKVDAFCGGSIVNEKWIVTAAHCVETGVKITVVAGEHNIEETEHTEQKRNVIRIIPHHNYNAAINKYNHDIALLELDEPLVLNSYVTPICIADKEYTNIFLKFGSGYVSGWGRVFHKGYSALVLQYLRVPLVDRATCLESTKFTIYNNMFCAGFHEGGRDSCQGDSGGPHVTEVEGTSFLTGIISWGEECAMKGKYGIYTKVSEYVNWIKNKAKLT
In the case of B4, the “% of WT kcat/KM” value [1] is reported as 577%, the kcat [1] is reported as 8.4 s⁻¹ and the kcat/KM [1] is reported as 2.6e+08 M⁻¹ s⁻¹. For the same protein, the KM [2] was 0.0335 µM, the kcat of FX activation by FIXa (Xase complex with FVIIIa, PC/PS vesicles, Ca2+) [2] was 7.8 s⁻¹ and the K0.5-mut/K0.5-wt [3] was > 517. For the same protein, the K0.5-mut/K0.5-wt [4] was 517.
